Target: fibrinogen
Test: cell-based or functional assay

## decorin core protein
  Final Abs (405 nm) of thrombin-induced clot at [Decorin] 0.2 mM: 0.16 Abs 405 nm
  Final Abs (405 nm) of thrombin-induced clot at [Decorin] 0.4 mM: 0.145 Abs 405 nm
  Final Abs (405 nm) of thrombin-induced clot at [Decorin] 1.0 mM: 0.12 Abs 405 nm
  Final Abs (405 nm) of thrombin-induced clot at [Decorin] 2.0 mM: 0.113 Abs 405 nm
  Rate (mAbs/min) of thrombin-induced clotting at [Decorin] 0.2 mM: 61.8 mAbs/min
  Rate (mAbs/min) of thrombin-induced clotting at [Decorin] 0.4 mM: 55 mAbs/min
  Rate (mAbs/min) of thrombin-induced clotting at [Decorin] 1.0 mM: 38.8 mAbs/min
  Rate (mAbs/min) of thrombin-induced clotting at [Decorin] 2.0 mM: 34.5 mAbs/min
